The values below come from publication PMC8442553 (Science (New York, N.Y.), 2019).

B3: Rsc8 (natural protein, yeast)
chain: MSDTEKDKDVPMVDSHEATEEPPTTSTNTPSFPHLAQEQAKEESATLGAEVAHKKINYEQEAQKLEEKALRFLAKQTHPVIIPSFASWFDISKIHEIEKRSNPDFFNDSSRFKTPKAYKDTRNFIINTYRLSPYEYLTITAVRRNVAMDVASIVKIHAFLEKWGLINYQIDPRTKPSLIGPSFTGHFQVVLDTPQGLKPFLPENVIKQEVEGGDGAEPQVKKEFPVNLTIKKNVYDSAQDFNALQDESRNSRQIHKVYICHTCGNESINVRYHNLRARDTNLCSRCFQEGHFGANFQSSDFIRLENNGNSVKKNWSDQEMLLLLEGIEMYEDQWEKIADHVGGHKRVEDCIEKFLSLPIEDNYIREVVGSTLNGKGGDSRDGSVSGSKLMECVNDAVQTLLQGDDKLGKVSDKSREISEKYIEESQAIIQELVKLTMEKLESKFTKLCDLETQLEMEKLKYVKESEKMLNDRLSLSKQILDLNKSLEELNVSKKLVLISEQVDSGIQLVEKDQEGDDEDGNTATGHGVKRVGKEGEEVGEGDSIAKLQPQVYKPWSL

Common to all, as to assay: cryo-EM structure
For one data set, the target named is T1, Rsc9 (yeast, UniProt Q03124 1-581).
T1 sequence: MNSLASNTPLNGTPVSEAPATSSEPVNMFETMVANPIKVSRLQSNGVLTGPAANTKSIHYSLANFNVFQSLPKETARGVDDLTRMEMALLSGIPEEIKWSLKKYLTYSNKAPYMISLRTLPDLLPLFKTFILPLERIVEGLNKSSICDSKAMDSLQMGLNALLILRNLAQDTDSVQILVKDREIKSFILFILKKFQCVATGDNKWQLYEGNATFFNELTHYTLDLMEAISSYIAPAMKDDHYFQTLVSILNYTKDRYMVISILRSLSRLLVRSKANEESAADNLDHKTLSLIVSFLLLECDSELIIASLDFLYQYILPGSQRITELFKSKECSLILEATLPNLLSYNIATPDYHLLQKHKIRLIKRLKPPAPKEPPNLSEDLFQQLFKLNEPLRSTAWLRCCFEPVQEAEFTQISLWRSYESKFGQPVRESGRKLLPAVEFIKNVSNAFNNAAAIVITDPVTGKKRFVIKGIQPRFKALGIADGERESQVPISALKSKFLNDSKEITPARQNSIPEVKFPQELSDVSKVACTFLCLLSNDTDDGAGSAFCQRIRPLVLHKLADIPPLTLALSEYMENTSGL

The target of the data set “Rsc8” is B3.
A further data set deals with T2, Rsc58 (yeast, UniProt Q07979 1-502).
T2 sequence: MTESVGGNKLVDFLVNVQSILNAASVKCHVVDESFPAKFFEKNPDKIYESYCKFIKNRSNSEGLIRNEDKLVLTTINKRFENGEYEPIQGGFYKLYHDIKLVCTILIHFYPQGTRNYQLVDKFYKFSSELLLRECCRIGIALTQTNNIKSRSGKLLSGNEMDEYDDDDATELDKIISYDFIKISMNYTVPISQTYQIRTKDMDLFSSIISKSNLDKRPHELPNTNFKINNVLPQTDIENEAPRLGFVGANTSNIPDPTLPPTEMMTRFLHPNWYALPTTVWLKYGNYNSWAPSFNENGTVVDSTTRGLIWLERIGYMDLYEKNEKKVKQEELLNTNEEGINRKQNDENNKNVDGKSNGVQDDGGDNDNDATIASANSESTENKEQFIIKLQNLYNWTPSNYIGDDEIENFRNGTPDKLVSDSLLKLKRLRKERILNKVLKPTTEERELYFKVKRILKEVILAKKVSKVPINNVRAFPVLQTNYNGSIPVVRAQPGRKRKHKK

The target of another data set is T3, Rsc7 (yeast, UniProt P32832 1-435).
T3 sequence: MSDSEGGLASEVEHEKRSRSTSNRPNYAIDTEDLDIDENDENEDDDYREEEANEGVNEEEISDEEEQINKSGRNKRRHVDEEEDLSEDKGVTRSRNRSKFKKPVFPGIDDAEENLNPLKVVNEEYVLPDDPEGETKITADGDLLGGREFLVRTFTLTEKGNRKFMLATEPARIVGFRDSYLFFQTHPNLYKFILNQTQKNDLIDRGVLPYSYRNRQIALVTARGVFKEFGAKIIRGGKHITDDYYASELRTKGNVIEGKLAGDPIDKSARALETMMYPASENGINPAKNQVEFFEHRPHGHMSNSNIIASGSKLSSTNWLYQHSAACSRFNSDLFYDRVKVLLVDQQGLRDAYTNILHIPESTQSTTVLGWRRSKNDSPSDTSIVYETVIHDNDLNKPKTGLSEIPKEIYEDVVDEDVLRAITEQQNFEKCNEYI

A further data set addresses T4, Sth1 (yeast, UniProt P32597 1-1359).
T4 sequence: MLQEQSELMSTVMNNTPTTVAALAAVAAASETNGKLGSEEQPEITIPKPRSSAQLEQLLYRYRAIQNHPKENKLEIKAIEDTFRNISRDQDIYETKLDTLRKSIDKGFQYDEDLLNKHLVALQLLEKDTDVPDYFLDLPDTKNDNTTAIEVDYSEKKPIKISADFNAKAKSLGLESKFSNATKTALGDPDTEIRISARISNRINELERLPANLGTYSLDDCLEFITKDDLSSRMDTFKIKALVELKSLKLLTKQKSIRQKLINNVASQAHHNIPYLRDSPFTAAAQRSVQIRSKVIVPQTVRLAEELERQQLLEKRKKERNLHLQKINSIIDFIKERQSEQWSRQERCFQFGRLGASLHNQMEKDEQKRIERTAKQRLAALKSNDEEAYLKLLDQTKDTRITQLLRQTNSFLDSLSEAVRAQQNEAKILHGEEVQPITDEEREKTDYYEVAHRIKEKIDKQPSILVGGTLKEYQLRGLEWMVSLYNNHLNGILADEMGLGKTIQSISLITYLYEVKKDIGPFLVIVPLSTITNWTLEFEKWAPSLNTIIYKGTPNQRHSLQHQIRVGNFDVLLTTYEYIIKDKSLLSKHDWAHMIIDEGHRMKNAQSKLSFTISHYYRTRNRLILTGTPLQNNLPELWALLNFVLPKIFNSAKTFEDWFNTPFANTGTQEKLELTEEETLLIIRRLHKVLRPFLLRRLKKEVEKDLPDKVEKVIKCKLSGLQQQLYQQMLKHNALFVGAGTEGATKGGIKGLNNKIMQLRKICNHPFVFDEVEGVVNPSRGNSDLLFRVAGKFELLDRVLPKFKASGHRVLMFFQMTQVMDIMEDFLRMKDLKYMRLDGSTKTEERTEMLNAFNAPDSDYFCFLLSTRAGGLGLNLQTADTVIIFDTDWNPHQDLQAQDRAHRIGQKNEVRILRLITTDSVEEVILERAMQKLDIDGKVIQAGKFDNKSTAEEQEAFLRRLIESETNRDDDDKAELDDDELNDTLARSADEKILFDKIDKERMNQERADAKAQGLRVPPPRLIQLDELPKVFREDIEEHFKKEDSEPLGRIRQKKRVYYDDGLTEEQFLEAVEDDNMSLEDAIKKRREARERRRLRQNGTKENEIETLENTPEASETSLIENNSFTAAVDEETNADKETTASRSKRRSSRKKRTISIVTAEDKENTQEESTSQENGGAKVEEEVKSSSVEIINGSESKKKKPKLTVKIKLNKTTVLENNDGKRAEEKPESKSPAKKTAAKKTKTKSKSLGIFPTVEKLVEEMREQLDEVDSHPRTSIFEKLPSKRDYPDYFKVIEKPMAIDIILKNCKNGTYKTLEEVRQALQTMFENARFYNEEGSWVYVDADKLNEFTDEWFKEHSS

The data set “cryo-EM structure” deals with the molecule itself.

B1: Rsc6 (natural protein, yeast)
chain: MVTQTNPVPVTYPTDAYIPTYLPDDKVSNLADLKKLIEMDSRLDLYLTRRRLDTSINLPTNTKTKDHPPNKEMLRIYVYNTTESSPRSDSGTPADSGKTTWTLRIEGKLLHESANGKHPFSEFLEGVAVDFKRLKPLGMGKKRKRDSSLSLPLNLQQPEYNDQDSTMGDNDNGEDEDSAEAESREEIVDALEWNYDENNVVEFDGIDIKRQGKDNLRCSITIQLRGVDGGKVQYSPNLATLIGMQTGSVNDAVYSIYKYILINNLFVTEQTEAQDGSNDAEDSSNENNNKNGAGDDDGVEGSTPKDKPELGEVKLDSLLQKVLDTNAAHLPLMNVVQTVNKLVSPLPPIILDYTIDLSKDTTYGATTLDVDVSHILHQPQPQPNLQKEEETDAEDTAKLREITKLALQLNSSAQKYQFFHELSLHPRETLTHYLWSSKQNELVLQGDQYFNEDAARTSDIYSNNNNDRSLMGNISLLYSQGRL
B1: the binding result with Rsc9, with Rsc8 and in the data set with Rsc58 was “binds” in each case.

B2: Sfh1 (natural protein, yeast)
chain: MSHQNQLIPQAYISNFHNRLTNEDDGIPIFTMAQQTRQHKRAKVVNYAEYDNDLFDEFNMNGSNFNNADTHYKDNAVSHENTPALTNGVTMDGSEYNVLENMNGADSIISNNKYDAGSNMVVESLSGLNSNNNASNGPSNKAQAQDIGNAVLPDLQDQHHNPFNILRYPKIRDTFINGKVVSPYRLNTDQETKANANSGEAIMIPITLDIEHMGHTIKDQFLWNYNDDSISPEEFASIYCKDLDMTSATLQTQIANIIKEQLKDLENIAATEIMSDLHVIINLTCNLQDRFFEDNFQWNLNDKSLTPERFATSIVQDLGLTREFIPLISQSLHETILKIKKDWVDGHLIQDHVPNDAAFGYLSGIRLDIDELGSNWCPRVEILTKEEIQKREIEKERNLRRLKRETDRLSRRGRRRLDDLETTMRM
As for B2, the binding result with Rsc7 is “binds”.

In the case of B3, the binding result with Sth1 and in the data set “cryo-EM structure” was “binds” each time.
